Results as given in patent US20140274790A1.
Ends that are not written are not given here. NH2‑PEG4 = N-terminal amino-PEG4 group (N-terminal PEGylation)

B1: N-terminally PEGylated C35A-3/15 (NH2-PEG4-…-NH2) (peptide)
peptide: {NH2‑PEG4}-DCAYHRGELVWCT-NH2
modifications: not fully specified (bridges); printed as NH2-PEG4-DCAYHRGELVWCT-NH2; cysteine pairing not given here; also: coupled through PEG4 amine to HiTrap NHS-activated HP column

The binders below were run against human IgG (human) (assay: SPR, synthetic peptide).

Compared with GPDCTYTNGNLVWCTFH (not fully specified (bridges); cysteine pairing not given here) [GFc-C35], PDCTYTNGNLVWCTF [GFc-C35-2/16] is 1.8-fold higher in Kd: 14 µM for the first, 25 µM for the second.

Going from DCTYTNGNLVWCT [GFc-C35-3/15] to RCTYTNGNLVWCT [GFc-C35-3/15 (D3R)], the Kd falls from 130 µM to 69 µM (1.9-fold). The second binds more tightly here.

Compared with DCAYTNGNLVWCT [GFc-C35-3/15 (T5A)], DCSYTNGNLVWCT [GFc-C35-3/15 (T5S)] is 2-fold higher in Kd: 61 µM for the first, 120 µM for the second.

First: DCTFTNGNLVWCT [GFc-C35-3/15 (Y6F)]
Second: DCTWTNGNLVWCT [GFc-C35-3/15 (Y6W)]
The Kd of the first is 42-fold higher: 2100 µM for the first, 50 µM for the second. The second binds more tightly here.

Going from DCTYHNGNLVWCT [GFc-C35-3/15 (T7H)] to DCTYRNGNLVWCT [GFc-C35-3/15 (T7R)], the Kd rises from 3 µM to 83 µM (28-fold).

First: DCTYSNGNLVWCT [GFc-C35-3/15 (T7S)]
Second: DCTYTLGNLVWCT [GFc-C35-3/15 (N8L)]
The Kd of the first is 10-fold lower: 26 µM for the first, 260 µM for the second. The first binds more tightly here.

Compared with DCTYTRGNLVWCT [GFc-C35-3/15 (N8R)], DCTYTNGELVWCT [GFc-C35-3/15 (N10E)] is 3.2-fold higher in Kd: 8 µM for the first, 26 µM for the second.

Going from DCTYTNGRLVWCT [GFc-C35-3/15 (N10R)] to DCTYTNGDLVWCT [GFc-C35-3/15 (N10D)], the Kd rises from 42 µM to 80 µM (1.9-fold).

First: DCTYTNGQLVWCT [GFc-C35-3/15 (N10Q)]
Second: DCTYTNGNMVWCT [GFc-C35-3/15 (L11M)]
The Kd of the first is 1.8-fold lower: 160 µM for the first, 280 µM for the second.

Compared with DCTYTNGNLIWCT [GFc-C35-3/15 (V12I)], DCTYTNGNLVWCS [GFc-C35-3/15 (T15S)] is 2.8-fold higher in Kd: 12 µM for the first, 34 µM for the second. The first binds more tightly here.

First: DCTYHRGNLVWCT [GFc-C35-3/15 (T7H, N8R)]
Second: DCAYHRGNLVWCT [GFc-C35-3/15 (T7H, N8R, T5A)]
The Kd of the first is 4.4-fold higher: 1.1 µM for the first, 0.25 µM for the second.

Compared with DCTWHRGNLVWCT [GFc-C35-3/15 (T7H, N8R, Y6W)], DCTYHRGELVWCT [GFc-C35-3/15 (T7H, N8R, N10E)] is 7.4-fold lower in Kd: 2 µM for the first, 0.27 µM for the second.

Compared with DCTYHRGNLIWCT [GFc-C35-3/15 (T7H, N8R, V12I)], DCAYHRGELVWCT (not fully specified (bridges); cysteine pairing not given here) [GFc-C35-3/15 (T5A, T7H, N8R, N10E)] is 89-fold lower in Kd: 4.8 µM for the first, 0.054 µM for the second.

First: DCAWHRGELVWCT [GFc-C35-3/15 (T5A, Y6W, T7H, N8R, N10E)]
Second: RCAYHRGELVWCS [GFc-C35-3/15 (D3R, T5A, T7H, N8R, N10E, T15S)]
The Kd of the first is 1.8-fold higher: 0.26 µM for the first, 0.147 µM for the second. The second binds more tightly here.

First: GPDCAYHRGELVWCTFH [C35A]
Second: GPRCAYHRGELVWCSFH [C35A (D3R, T15S)]
The Kd of the first is 4.7-fold lower: 0.009 µM for the first, 0.042 µM for the second. The first binds more tightly here.

For DCTYHNGNLVWCT [GFc-C35-3/15 (T7H)], the fold increase of affinity against GFc-C35-3/15 was 50 fold.

With DCTYTRGNLVWCT [GFc-C35-3/15 (N8R)] the fold decrease of Kd against GFc-C35-3/15 was 18 fold.

Going from DCTYTNGNMVWCT [GFc-C35-3/15 (L11M)] to DCTYTNGNLIWCT [GFc-C35-3/15 (V12I)], the ratio of Kd against GFc-C35-3/15 falls from 2 fold to 0.1 fold.

With DCTYTNGNLVWCS [GFc-C35-3/15 (T15S)] the ratio of Kd against GFc-C35-3/15 was 0.25 fold.

For DCAYHRGELVWCT (not fully specified (bridges); cysteine pairing not given here) [GFc-C35-3/15 (T5A, T7H, N8R, N10E)], the fold higher affinity than GFc-C35-3/15 was 2400 fold.

In the case of GPDCAYHRGELVWCTFH [C35A], the ratio of Kd against C35A-3/15 is reported as 0.2 fold.

GPRCAYHRGELVWCSFH [C35A (D3R, T15S)] was tested, and the ratio of Kd against C35A-3/15 (D3R, T15S) was 0.333 fold.

These binders were tested against human IgG (human) (assay: SPR sensorgram analysis).

Going from DCAYHRGELVWCT (not fully specified (bridges); cysteine pairing not given here) [GFc-C35-3/15 (T5A, T7H, N8R, N10E)] to DCAWHRGELVWCT [GFc-C35-3/15 (T5A, Y6W, T7H, N8R, N10E)], the koff falls from 0.025 s⁻¹ to 0.014 s⁻¹ (1.8-fold).

Compared with DCAYHRGELVWCT (not fully specified (bridges); cysteine pairing not given here) [GFc-C35-3/15 (T5A, T7H, N8R, N10E)], DCAWHRGELVWCT [GFc-C35-3/15 (T5A, Y6W, T7H, N8R, N10E)] is 8.5-fold lower in kon: 460000 M⁻¹ s⁻¹ for the first, 54000 M⁻¹ s⁻¹ for the second.

DCAYHRGELVWCT (not fully specified (bridges); cysteine pairing not given here) [GFc-C35-3/15 (T5A, T7H, N8R, N10E)] was tested, and the ratio of Kd against GFc-C35-3/15 was 0.0417 fold.

With DCAWHRGELVWCT [GFc-C35-3/15 (T5A, Y6W, T7H, N8R, N10E)] the Kd was 0.257 µM.

In the case of DCAWHRGELVWCT [GFc-C35-3/15 (T5A, Y6W, T7H, N8R, N10E)], the ratio of ka against GFc-C35-3/15 (T5A, T7H, N8R, N10E) is reported as under 0.125 fold.

DCAWHRGELVWCT [GFc-C35-3/15 (T5A, Y6W, T7H, N8R, N10E)] showed a ratio of kd against GFc-C35-3/15 (T5A, T7H, N8R, N10E) of 0.5 fold.

The binders below were run against human IgG (human) (assay: SPR, synthetic peptide on human IgG).

SPDCAYHRGELVWCTFH [C35A (G1S)] and GDDCAYHRGELVWCTFH [C35A (P2D)] are within 1.5-fold of each other in Kd: 0.0093 µM for the first, 0.0133 µM for the second.

Going from GPSCAYHRGELVWCTFH [C35A (D3S)] to GPDCAYHRGELVWCSFH [C35A (T15S)], the Kd falls from 0.0285 µM to 0.0144 µM (2-fold). The second binds more tightly here.

GPDCAYHRGELVWCTHH [C35A (F16H)] and GPDCAYHRGELVWCTFY [C35A (H17Y)] are within 1.5-fold of each other in Kd: 0.0114 µM for the first, 0.012 µM for the second.

SPDCAYHRGELVWCTFY [C35A (G1S, H17Y)] and SDDCAYHRGELVWCTFY (not fully specified; cysteine pairing not given here) [C35A (P2D, H17Y)] are within 1.5-fold of each other in Kd: 0.011 µM for the first, 0.013 µM for the second.

These binders were tested against human IgG (human) (assay: affinity column with 1.2 µmol immobilized peptide, 1 mL human serum applied, elution at pH 2.5, absorbance).

B1 showed a protein yield of the eluted fraction D of 10.4 mg.
